T1: THP-1 cells overexpressing human Siglec-15 (Homo sapiens, UniProt Q6ZMC9)
T1 construct: Human full-length Siglec-15 and CD19 genes were synthesized and cloned into the pLV-MSCV lentiviral vector; His; expressed in transfected cells; host or cells: THP-1 (lentiviral overexpression, 'THP-1 S15 OE')
T1 sequence (Q6ZMC9 20-328): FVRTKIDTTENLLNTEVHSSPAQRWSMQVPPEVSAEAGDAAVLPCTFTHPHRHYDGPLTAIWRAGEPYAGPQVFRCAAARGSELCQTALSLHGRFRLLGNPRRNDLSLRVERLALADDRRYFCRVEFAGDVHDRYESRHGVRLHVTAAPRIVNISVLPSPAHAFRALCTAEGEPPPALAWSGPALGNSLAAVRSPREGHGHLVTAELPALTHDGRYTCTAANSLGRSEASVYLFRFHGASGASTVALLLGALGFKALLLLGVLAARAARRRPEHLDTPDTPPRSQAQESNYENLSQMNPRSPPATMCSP

T2: recombinant human Siglec-15 protein (Homo sapiens, UniProt Q6ZMC9)
T2 construct: purchased Bonopusbio CW70-50 ug
T2 sequence (Q6ZMC9 20-263 limits assumed): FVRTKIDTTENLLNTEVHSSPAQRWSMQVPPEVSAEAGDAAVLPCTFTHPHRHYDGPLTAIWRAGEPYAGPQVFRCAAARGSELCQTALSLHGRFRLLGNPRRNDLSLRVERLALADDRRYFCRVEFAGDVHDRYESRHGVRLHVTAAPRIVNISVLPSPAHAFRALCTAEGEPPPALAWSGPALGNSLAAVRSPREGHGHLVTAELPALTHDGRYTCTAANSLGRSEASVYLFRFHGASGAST

B1: ZLA-1243-E01-MMAE (conjugate)
VH: QVQLVQSGGGLVQPGRSLRLSCAASGFTFDDYAMHWVRQAPGKGLEWVSGISWNSGSIGYADSVKGRFTISRDNAKNSLYLQMNSLRAEDTALYYCAKGLWPSYDLDAFDIWGQGTMVTVSS
VL: QSALTQPASVSGSPGQSITLSCTGTSSDVGAYNFVSWYQQHPGTAPKLMIYEVSNRPSGVSDRFSGSKSGNTASLTISGLQAEDEADYYCSSYTSTIPPFVFGTGTKVTVL
B2: S15B1-VH1 + VL2: humanized S15B1 antibody, humanized VH1 (SEQ ID NO: 103) with humanized VL2 (antibody, V domains shown)
VH: QVQLVQSGAEVKKPGASVKVSCKASGYAFSSSWMNWVRQAPGQGLEWIGRIYPGHGETNYNGKFKDRVTMTADTSTSTVYMELSSLRSEDTAVYFCARVDNSDPYYFDYWGQGTTVTVSS
VL: DIVLTQSPASLAVSPGQRATITCRASKSVSTSGYSYMHWYQQKPGQPPKLLIYLASNLESGVPARFSGSGSGTDFTLTINPVEAEDTATYYCQHGRELPFTFGGGTKLEIK
B3: S15B1-VH1 + VL1: humanized S15B1 antibody, humanized VH1 (SEQ ID NO: 103) with humanized VL1 (antibody, V domains shown)
VH: QVQLVQSGAEVKKPGASVKVSCKASGYAFSSSWMNWVRQAPGQGLEWIGRIYPGHGETNYNGKFKDRVTMTADTSTSTVYMELSSLRSEDTAVYFCARVDNSDPYYFDYWGQGTTVTVSS
VL: DIVLTQSPASLAVSPGQRATITCRASKSVSTSGYSYMHWYQQKPGQPPKLLIYLASNLESGVPARFSGSGSGTDFTLTINPVEAEDTANYYCQHGRELPFTFGGGTKLEIK
B4: S15B1-VH2 + VL2: humanized S15B1 antibody, humanized VH2 with humanized VL2 (antibody, V domains shown)
VH: QVQLVQSGAEVKKPGASVKVSCKASGYAFSSSWMNWVRQAPGQGLEWIGRIYPGHGETNYNGKFKDRVTMTADTSTSTVYMELSSLRSEDTAVYFCARVDNSDPYYFDYWGQGTTVTVSS
VL: DIVLTQSPASLAVSPGQRATITCRASKSVSTSGYSYMHWYQQKPGQPPKLLIYLASNLESGVPARFSGSGSGTDFTLTINPVEAEDTATYYCQHGRELPFTFGGGTKLEIK
B5: S15B1-VH3 + VL1: humanized S15B1 antibody, humanized VH3 with humanized VL1 (antibody, V domains shown)
VH: QVQLVQSGAEVKKPGASVKVSCKASGYAFSSSWMNWVKQAPGQGLEWIGRIYPGHGETNYNGKFKDRATMTADTSTSTVYMELSSLRSEDTAVYFCARVDNSDPYYFDYWGQGTTVTVSS
VL: DIVLTQSPASLAVSPGQRATITCRASKSVSTSGYSYMHWYQQKPGQPPKLLIYLASNLESGVPARFSGSGSGTDFTLTINPVEAEDTANYYCQHGRELPFTFGGGTKLEIK
B6: S15B1-VH2 + VL1: humanized S15B1 antibody, humanized VH2 with humanized VL1 (antibody, V domains shown)
VH: QVQLVQSGAEVKKPGASVKVSCKASGYAFSSSWMNWVRQAPGQGLEWIGRIYPGHGETNYNGKFKDRVTMTADTSTSTVYMELSSLRSEDTAVYFCARVDNSDPYYFDYWGQGTTVTVSS
VL: DIVLTQSPASLAVSPGQRATITCRASKSVSTSGYSYMHWYQQKPGQPPKLLIYLASNLESGVPARFSGSGSGTDFTLTINPVEAEDTANYYCQHGRELPFTFGGGTKLEIK
B7: S15B1-VH4 + VL2: humanized S15B1 antibody, humanized VH4 with humanized VL2 (antibody, V domains shown)
VH: QVQLVQSGAEVKKPGASVKVSCKASGYAFSSSWMNWVKQAPGQGLEWIGRIYPGHGETNYNGKFKDRATMTADKSTSTVYMELSSLRSEDTAVYFCARVDNSDPYYFDYWGQGTTVTVSS
VL: DIVLTQSPASLAVSPGQRATITCRASKSVSTSGYSYMHWYQQKPGQPPKLLIYLASNLESGVPARFSGSGSGTDFTLTINPVEAEDTATYYCQHGRELPFTFGGGTKLEIK
B8: S15B1-VH3 + VL2: humanized S15B1 antibody, humanized VH3 with humanized VL2 (antibody, V domains shown)
VH: QVQLVQSGAEVKKPGASVKVSCKASGYAFSSSWMNWVKQAPGQGLEWIGRIYPGHGETNYNGKFKDRATMTADTSTSTVYMELSSLRSEDTAVYFCARVDNSDPYYFDYWGQGTTVTVSS
VL: DIVLTQSPASLAVSPGQRATITCRASKSVSTSGYSYMHWYQQKPGQPPKLLIYLASNLESGVPARFSGSGSGTDFTLTINPVEAEDTATYYCQHGRELPFTFGGGTKLEIK
B9: S15B1-VH4 + VL1: humanized S15B1 antibody, humanized VH4 with humanized VL1 (antibody, V domains shown)
VH: QVQLVQSGAEVKKPGASVKVSCKASGYAFSSSWMNWVKQAPGQGLEWIGRIYPGHGETNYNGKFKDRATMTADKSTSTVYMELSSLRSEDTAVYFCARVDNSDPYYFDYWGQGTTVTVSS
VL: DIVLTQSPASLAVSPGQRATITCRASKSVSTSGYSYMHWYQQKPGQPPKLLIYLASNLESGVPARFSGSGSGTDFTLTINPVEAEDTANYYCQHGRELPFTFGGGTKLEIK

Columns and labels:
[1] = molecular target: T1, THP-1 cells overexpressing human Siglec-15; assay: Binding of anti-Siglec-15 ADCs to THP-1 S15+ cells (flow cytometry); conditions: relative to Trastuzumab-based ADC negative control
Experimental: Binding of anti-Siglec-15 ADCs to THP-1 S15+ cells: 50,000 cells/well of THP-1 S15 OE cells were added to a round bottom 96 well plate, centrifuged at 450×G for 5 minutes and the supernatant discarded. Human anti-siglec-15 IgG ADCs were prepared (starting at 198 nM, 3-fold serial dilution in staining buffer) and the cells were resuspended in 100 μl of ADC. Cells were incubated for 40 minutes on ice and 100 μl of staining buffer were added to each well, followed by centrifugation at 450×G for 5 minutes and supernatants were discarded. The secondary antibody was prepared (anti-human IgG-PE at 1:500 dilution) and added 100 μl to each well. Cells were incubated for 40 minutes on ice and 100 μl of staining buffer were added to each well followed by centrifugation at 450× G for 5 minutes to then discard the supernatant. Cells were resuspended in 150 μl of staining buffer and acquired in a flow cytometer.

[2] = molecular target: T2, recombinant human Siglec-15 protein; assay: BIACORE surface plasmon resonance binding affinity; conditions: SPR; antibody as ligand, human Siglec-15 as analyte; 1:1 Langmuir model
Text: Binding affinity determination of anti-Siglec-15 monoclonal antibodies using BIACORE surface plasmon resonance: The purified anti-Siglec-15 monoclonal antibodies (mAbs) were characterized for binding affinity and binding kinetics by Biacore T200 system (GE healthcare, Pittsburgh, PA, USA). Anti-Siglec-15 antibodies were covalently linked to a CM5 chip (carboxy methyl dextran coated chip, GE healthcare, Cat #BR-1005-30) via primary amines, using a standard amine coupling kit provided by Biacore (GE healthcare, Pittsburgh, PA, USA). Un-reacted moieties on the biosensor surface were blocked with ethanolamine. Then, serially diluted recombinant human Siglec-15-his protein (Bonopusbio, CW70-50 ug), 2-fold serial dilution in HBS-EP buffer starting at 80 nM, were respectively flown onto the chip at a flow rate of […]. The antigen-antibody association kinetics was followed for 2 minutes, and the dissociation kinetics was followed for 10 minutes. The association and dissociation curves were fit to a 1:1 Langmuir binding model using BIAcore evaluation software. The dissociation rate (kd) and association constant (ka) rate constants were obtained using Evaluation Software. The equilibrium dissociation constant (KD) was calculated from the ratio of kd over ka.

Molecule | binding capacity to THP-1 cells overexpressing human Siglec-15 [1] | ka [2] [M⁻¹ s⁻¹] | kd [2] [s⁻¹]
B1 | increased binding capacity |  | 
B2 |  | 3.54e+06 | 0.000563
B3 |  | 3.35e+06 | 0.000455
B4 |  | 3.44e+06 | 0.000326
B5 |  | 3.73e+06 | 0.000257
B6 |  | 3.8e+06 | 0.000473
B7 |  | 1.69e+06 | 0.000234
B8 |  | 4.49e+06 | 0.000293
B9 |  | 4.1e+06 | 0.000385

Source: patent US20250361297A1, “ANTI- SIGLEC-15 BINDING MOLECULES AND METHODS OF USE” (ADAPTAM THERAPEUTICS, S.L., priority 2024, published 2025)
